Test results as given in patent publication US20110086770A1 (ANAPHORE, published 2011).

T1: recombinant human IL-12Rβ2/Fc fusion protein (R&D Systems) (human, UniProt Q99665 24-622, limits assumed)
T1 construct: bought; also called Il12Rb2
T1 sequence (looked up): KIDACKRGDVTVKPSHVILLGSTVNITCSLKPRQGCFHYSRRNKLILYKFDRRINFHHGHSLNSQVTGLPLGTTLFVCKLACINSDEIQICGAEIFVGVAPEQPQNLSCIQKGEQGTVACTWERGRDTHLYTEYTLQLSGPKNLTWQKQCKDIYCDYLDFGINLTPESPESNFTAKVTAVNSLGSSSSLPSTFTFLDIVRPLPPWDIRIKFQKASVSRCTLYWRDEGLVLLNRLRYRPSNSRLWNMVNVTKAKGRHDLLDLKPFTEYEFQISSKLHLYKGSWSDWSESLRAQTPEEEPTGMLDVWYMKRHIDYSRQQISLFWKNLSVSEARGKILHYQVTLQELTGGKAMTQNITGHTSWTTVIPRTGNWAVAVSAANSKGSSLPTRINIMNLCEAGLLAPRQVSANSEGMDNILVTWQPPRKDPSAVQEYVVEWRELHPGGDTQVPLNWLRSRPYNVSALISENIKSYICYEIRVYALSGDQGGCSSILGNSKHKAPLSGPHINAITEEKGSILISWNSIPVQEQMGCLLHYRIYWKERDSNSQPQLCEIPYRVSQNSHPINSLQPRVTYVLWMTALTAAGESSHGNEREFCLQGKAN

T2: recombinant human IL-23R/Fc chimera (R&D Systems) (human, UniProt Q5VWK5 24-353)
T2 construct: bought; also called human IL-23R/Fc fusion protein; rhIL23RFc
T2 sequence (looked up): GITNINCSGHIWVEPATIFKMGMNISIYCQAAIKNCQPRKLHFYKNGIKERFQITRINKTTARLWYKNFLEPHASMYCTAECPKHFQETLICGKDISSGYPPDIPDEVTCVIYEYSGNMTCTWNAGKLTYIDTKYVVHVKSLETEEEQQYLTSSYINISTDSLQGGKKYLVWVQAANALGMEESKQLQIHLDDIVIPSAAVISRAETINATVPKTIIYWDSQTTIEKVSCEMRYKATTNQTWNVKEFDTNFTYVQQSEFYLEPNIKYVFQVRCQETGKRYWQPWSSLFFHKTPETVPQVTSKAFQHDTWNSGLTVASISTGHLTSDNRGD


What was measured:
[1] = molecular target: recombinant human DR 5 receptor Fc fusion protein (R&D Systems) (human); assay: SPR (Biacore), captured DR5/Fc
[2] = molecular target: T3, recombinant human IL-12Rβ1/Fc fusion protein (R&D Systems) (human, UniProt P42701 24-540, limits assumed); assay: Biacore, IL-12Rβ1/Fc captured
T3 construct: bought; also called Il12Rb1
Experimental: (§1) A Biacore 3000 biosensor (GE Healthcare) was used to evaluate the interaction of human IL-12Rβ1/Fc or IL-12Rβ2/Fc with IL-23R binding ATRIMER™ complexes. Immobilization of an anti-human IgG Fc antibody (GE Healthcare) to the CM5 chip (GE Healthcare) was performed using standard amine coupling chemistry, and this modified surface was used to capture recombinant human IL-12Rβ1/Fc or IL-12Rβ2/Fc fusion protein (R&D Systems). A low-density receptor surface, less than 200 RU, was used for all of the analyses. ATRIMER™ complex dilutions (100 nM) were injected over the IL-12R surface at 30 μl/min. Data collection was 3 minutes for the association and 5 minutes for dissociation. The anti-human IgG surface was regenerated with a 30 s pulse of 3M magnesium chloride. All sensorgrams were double-referenced against an anti-human IgG Fc antibody surface as well as buffer injections.

[3] = molecular target: T1, recombinant human IL-12Rβ2/Fc fusion …; assay: Biacore, IL-12Rβ2/Fc captured
Experimental: as §1

[4] = molecular target: T2, recombinant human IL-23R/Fc chimera …; assay: competition ELISA against IL-23
[5] = molecular target: T2, recombinant human IL-23R/Fc chimera …; assay: SPR (Biacore), captured IL-23R/Fc, ATRIMER
Experimental: A Biacore 3000 biosensor (GE Healthcare) was used to evaluate the interaction of human IL-23R and receptor binders. Immobilization of an anti-human IgG Fc antibody (GE Heathcare) to the CM5 chip (Biacore) was performed using standard amine coupling chemistry, and this modified surface was used to capture a recombinant human IL-23R/Fc fusion protein (R&D Systems). A low-density receptor surface, less than 200 RU, was used for all of the analyses. ATRIMER™ polypeptide complex dilutions (1-500 nM) were injected over the IL-23R surface at 30 μl/min and kinetic constants were derived from the sensorgram data using the Biaevaluation software (version 3.1, GE Healthcare). Data collection was 3 minutes for the association and 5 minutes for dissociation. The anti-human IgG surface was regenerated with a 30 s pulse of 3M magnesium chloride. All sensorgrams were double-referenced against an activated and blocked flow-cell as well as buffer injections.

[6] = molecular target: recombinant human DR 4 receptor Fc fusion protein (R&D Systems) (human); assay: SPR (Biacore), captured DR4/Fc
recombinant human DR 4 receptor Fc fusion protein (R&D Systems) (human), sequence (chain, as listed by the source): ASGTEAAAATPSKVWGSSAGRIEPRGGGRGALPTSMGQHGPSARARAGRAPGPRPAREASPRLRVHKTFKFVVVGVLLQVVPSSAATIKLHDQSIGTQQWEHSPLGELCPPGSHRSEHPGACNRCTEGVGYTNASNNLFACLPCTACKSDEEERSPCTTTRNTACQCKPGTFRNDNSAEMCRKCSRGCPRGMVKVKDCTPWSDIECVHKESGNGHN

recombinant human DR 5 receptor Fc fusion protein (R&D Systems) (human), sequence (chain, as listed by the source): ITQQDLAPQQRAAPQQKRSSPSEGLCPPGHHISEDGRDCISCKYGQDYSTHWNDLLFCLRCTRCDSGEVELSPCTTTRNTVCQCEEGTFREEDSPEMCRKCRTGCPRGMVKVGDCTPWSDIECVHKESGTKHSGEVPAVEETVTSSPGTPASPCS

Binder	Ka [1] [M⁻¹]	Kd [1] [nM]	koff [1] [s⁻¹]	kon [1] [M⁻¹ s⁻¹]	Ratio IC50 to 056-53.H4E IC50 [4] [ratio]	Ka [5] [M⁻¹]	Kd [5] [nM]	koff [5] [s⁻¹]	kon [5] [M⁻¹ s⁻¹]	also measured
9b3d (=B3D) DR 5 ATRIMER (designed binder, Homotrimer (ATRIMER) of this chain; one protomer is given., also called 029-15.B3D; not shown: C-terminal tag (His/Myc of pANA4, HA-StrepII of pANA10, or that of pANA19)) EPPTQKPKKIVNAKKDVVNTKMFEELKSRLDTLAQEVALLKEQQALQTVCLKGTKVHMKCFLAFTQTKTFHEASEDCISRGGTLSTPQTGSENDALYEYLRQSVGNEAEIWLGLNELRTDGLWVDMTGARIAYKNWETEITAQPDGGVMRRSENCAVLSGAANGKWFDKRCRDQLPYICQFGIV	1.11e+06	899	0.000104	116						
1a7b (=A8G) DR 5 ATRIMER (designed binder, Homotrimer (ATRIMER) of this chain; one protomer is given., also called 029-15.A8G; not shown: C-terminal tag (His/Myc of pANA4, HA-StrepII of pANA10, or that of pANA19)) EPPTQKPKKIVNAKKDVVNTKMFEELKSRLDTLAQEVALLKEQQALQTVCLKGTKVHMKCFLAFTQTKTFHEASEDCISRGGTLSTPQTGSENDALYEYLRQSVGNEAEIWLGLNRAWLRPRWVDMTGARIAYKNWETEITAQPDGGTLVSGENCAVLSGAANGKWFDKRCRDQLPYICQFGIV	6.43e+07	15.6	0.000629	40500						
8b6b (=A1H) DR 5 ATRIMER (designed binder, Homotrimer (ATRIMER) of this chain; one protomer is given., also called 029-15.A1H; not shown: C-terminal tag (His/Myc of pANA4, HA-StrepII of pANA10, or that of pANA19)) EPPTQKPKKIVNAKKDVVNTKMFEELKSRLDTLAQEVALLKEQQALQTVCLKGTKVHMKCFLAFTQTKTFHEASEDCISRGGTLSTPQTGSENDALYEYLRQSVGNEAEIWLGLNRAVLRPRWVDMTGARIAYKNWETEITAQPDGGWVLGGKNCAVLSGAANGKWFDKRCRDQLPYICQFGIV	2.56e+07	39.1	0.000506	12900						
105-08-1A3 ATRIMER (designed binder, not shown: C-terminal tag: Myc/His6 (pANA4) or HA-StrepII (pANA10); A Ser left at the ompA junction may also sit at the N-terminus) EPPTQKPKKIVNAKKDVVNTKMFEELKSRLDTLAQEVALLKEQQALQTVCLKGTKVHMKCFLAFTQTKTFHEASEDCISRGGTLSTPQTGSENDALYEYLRQSVGNEAEIWLGLNGSPRTDTWVDMTGARIAYKNWETEITAQPDGGWGVFGENCAVLSGAANGKWFDKRCRDQLPYICQFGIV					1.1	2.11e+09	0.473	0.000348	735000	
105-20-2A3 ATRIMER (designed binder, not shown: C-terminal tag: Myc/His6 (pANA4) or HA-StrepII (pANA10); A Ser left at the ompA junction may also sit at the N-terminus) EPPTQKPKKIVNAKKDVVNTKMFEELKSRLDTLAQEVALLKEQQALQTVCLKGTKVHMKCFLAFTQTKTFHEASEDCISRGGTLSTPQTGSENDALYEYLRQSVGNEAEIWLGLNGSPITNTWVDMTGARIAYKNWETEITAQPDGGFGYFGENCAVLSGAANGKWFDKRCRDQLPYICQFGIV					1.2	1.32e+09	0.759	0.000312	412000	
101-113-6C102 ATRIMER (designed binder, ATRIMER is a homotrimer; one protomer is given., not shown: C-terminal purification tag: Myc/His6 (pANA4) or HA-StrepII (pANA10)) EPPTQKPKKIVNAKKDVVNTKMFEELKSRLDTLAQEVALLKEQQALQTVCLKGTKVHMKCFLAFTQTKTFHEASEDCISRGGTLSTPQTGSENDALYEYLRQSVGNEAEIWLGLNGSNVTQTWVDMTGARIAYKNWEPPPPHHPQGGFGVFGENCAVLSGAANGKWFDKRCRDQLPYICQFGIV					2	9.62e+08	1.04	0.000283	271000	
101-80-5H3 ATRIMER (designed binder, ATRIMER is a homotrimer; one protomer is given., one residue deleted from Loop 4 (-GVFG); the GlyGly to AlaAla change; not shown: C-terminal purification tag: Myc/His6 (pANA4) or HA-StrepII (pANA10)) EPPTQKPKKIVNAKKDVVNTKMFEELKSRLDTLAQEVALLKEQQALQTVCLKGTKVHMKCFLAFTQTKTFHEASEDCISRGGTLSTPQTGSENDALYEYLRQSVGNEAEIWLGLNGSALTNTWVDMTGARIAYKNWEPPAPYHPMAAGVFGENCAVLSGAANGKWFDKRCRDQLPYICQFGIV					11.3	1.55e+08	6.46	0.000327	50500	
014-42.3D11 ATRIMER (designed binder, Homotrimer (ATRIMER) of this chain; one protomer is given., not shown: C-terminal tag (His/Myc of pANA4, HA-StrepII of pANA10, or that of pANA19)) EPPTQKPKKIVNAKKDVVNTKMFEELKSRLDTLAQEVALLKEQQALQTVCLKGTKVHMKCFLAFTQTKTFHEASEDCISRGGTLSTPQTGSENDALYEYLRQSVGNEAEIWLGLNGWLEGAGWVDMTGARIAYKNWETEITAQPDGGWHWRWENCAVLSGAANGKWFDKRCRDQLPYICQFGIV										Ka [6]: 2.53e+07 M⁻¹; Kd [6]: 39.5 nM; koff [6]: 0.000526 s⁻¹; kon [6]: 13300 M⁻¹ s⁻¹
2a1a (=B9F) DR 5 ATRIMER (designed binder, Homotrimer (ATRIMER) of this chain; one protomer is given., also called 029-15.B9F; not shown: C-terminal tag (His/Myc of pANA4, HA-StrepII of pANA10, or that of pANA19)) EPPTQKPKKIVNAKKDVVNTKMFEELKSRLDTLAQEVALLKEQQALQTVCLKGTKVHMKCFLAFTQTKTFHEASEDCISRGGTLSTPQTGSENDALYEYLRQSVGNEAEIWLGLNKRVWYRGWVDMTGARIAYKNWETEITAQPDGGMRRRRENCAVLSGAANGKWFDKRCRDQLPYICQFGIV	2.38e+07	42.8	0.00184	43800						

Second part, led by results:

Ka [1] [M⁻¹]	Kd [1] [nM]	koff [1] [s⁻¹]	kon [1] [M⁻¹ s⁻¹]	Ratio IC50 to 056-53.H4E IC50 [4] [ratio]	Ka [5] [M⁻¹]	Kd [5] [nM]	koff [5] [s⁻¹]	kon [5] [M⁻¹ s⁻¹]	Binder	also measured
				1	2.58e+09	0.388	0.000395	1.02e+06	101-51-1A4 ATRIMER (designed binder, also called ATRIMER complex 1A4) EPPTQKPKKIVNAKKDVVNTKMFEELKSRLDTLAQEVALLKEQQALQTVCLKGTKVHMKCFLAFTQTKTFHEASEDCISRGGTLSTPQTGSENDALYEYLRQSVGNEAEIWLGLNGSALTNTWVDMTGARIAYKNWERPALVQPRGGFGVFGENCAVLSGAANGKWFDKRCRDQLPYICQFGIV	binding result [2]: no binding (tested: 100 nM); binding result [3]: no binding (tested: 100 nM)
				0.9	1.63e+09	0.613	0.000382	623000	101-113-6C108 ATRIMER (designed binder) EPPTQKPKKIVNAKKDVVNTKMFEELKSRLDTLAQEVALLKEQQALQTVCLKGTKVHMKCFLAFTQTKTFHEASEDCISRGGTLSTPQTGSENDALYEYLRQSVGNEAEIWLGLNGSALTNTWVDMTGARIAYKNWEPPPPHHPMGGFGVFGENCAVLSGAANGKWFDKRCRDQLPYICQFGIV	binding result [2]: no binding (tested: 100 nM); binding result [3]: no binding (tested: 100 nM)
				2.8	5.41e+08	1.85	0.000471	254000	105-20-2F12 ATRIMER (designed binder, not shown: C-terminal tag: His/Myc (pANA4) or HA-StrepII (pANA10)) EPPTQKPKKIVNAKKDVVNTKMFEELKSRLDTLAQEVALLKEQQALQTVCLKGTKVHMKCFLAFTQTKTFHEASEDCISRGGTLSTPQTGSENDALYEYLRQSVGNEAEIWLGLNGSKLTDTWVDMTGARIAYKNWETEITAQPDGGFGYFGENCAVLSGAANGKWFDKRCRDQLPYICQFGIV	
				1	2.24e+09	0.447	0.000187	419000	101-51-1A7 ATRIMER (designed binder) EPPTQKPKKIVNAKKDVVNTKMFEELKSRLDTLAQEVALLKEQQALQTVCLKGTKVHMKCFLAFTQTKTFHEASEDCISRGGTLSTPQTGSENDALYEYLRQSVGNEAEIWLGLNGSALTNTWVDMTGARIAYKNWERPPLYQPGGGWGVFGENCAVLSGAANGKWFDKRCRDQLPYICQFGIV	binding result [2]: no binding (tested: 100 nM); binding result [3]: no binding (tested: 100 nM)
